B1: (4) Y10A: OSM-GST fusion, alanine for Tyr 10 (protein)
chain: AAIGSCSKEARVLLGQLQKQTDLMQDTSRLLDPYIRIQGLDVPKLREHCRERPGAFPSEETLRGLGRRGFLQTLNATLGCVLHRLADLEQRLPKAQDLERSGLNIEDLEKLQMARPNILGLRNNIYCMAQLLDNSDTAEPTKAGRGASQPPTPTPASDAFQRKLEGCRFLHGYHRFMHSVGRVFSKWGESPNRSRR
modifications: left off: a dimerising Fc or GST; large carriers; small tags and cut ends
B2: (11) Q18A: OSM-GST fusion, alanine for Gln 18 (protein)
chain: B1 chain with A10Y, Q18A
modifications: left off: a dimerising Fc or GST; large carriers; small tags and cut ends
B3: (8) G15A: OSM-GST fusion, alanine for Gly 15 (protein)
chain: B1 chain with A10Y, G15A
modifications: left off: a dimerising Fc or GST; large carriers; small tags and cut ends
B4: (7) L14A: OSM-GST fusion, alanine for Leu 14 (protein)
chain: B1 chain with A10Y, L14A
modifications: left off: a dimerising Fc or GST; large carriers; small tags and cut ends
B5: (12) K19A: OSM-GST fusion, alanine for Lys 19 (protein)
chain: B1 chain with A10Y, K19A
modifications: left off: a dimerising Fc or GST; large carriers; small tags and cut ends
B6: (10) L17A: OSM-GST fusion, alanine for Leu 17 (protein)
chain: B1 chain with A10Y, L17A
modifications: left off: a dimerising Fc or GST; large carriers; small tags and cut ends
B7: (5) R11A: OSM-GST fusion, alanine for Arg 11 (protein)
chain: B1 chain with A10Y, R11A
modifications: left off: a dimerising Fc or GST; large carriers; small tags and cut ends

Numbering of substitutions follows the chain as printed. Numbers in names are those of the source.

The first test concerns HepG2 B6 cells (STAT-sPAP reporter). Kind of test: OSM-GST mutant driven sPAP production in HepG2 B6 assay. The test is classed as cell-based, human.
Conditions: not given
As for the experimental part:
HepG2 B6 cells were plated into 96 well plates to a final concentration of 3×10^4 cells per well in 100 μl of media (DMEM (Sigma), 10% HI FCS, 1% non-essential amino acids, 2 mM Glutamine, 500 μg ml^−1 G418, (all from Life Technologies)). Cells were allowed to equilibrate for 48 hours. Putative anti-OSM solid compounds were made up to a stock dilution of 20 mM in DMSO and serially diluted 1:3 in DMSO. This was then further diluted in HepG26B assay media, this is as above media but with 1% heat inactivated FCS, low alkaline phosphatase activity (Life Technologies) substituted for 10% HI FCS. Compounds were diluted 1:3 from a top concentration of […] to a final concentration of 0.09 μM in a final concentration of 1% DMSO. (That is 200, 66.67, 22.22, 7.41, 2.47, 0.82, 0.27, 0.09 and 0 μM). The old media was removed from the wells and replaced with diluted compound also containing 2 ng ml^−1 OSM (R&D Systems), cells were incubated for a further 20 hours. Each dilution was performed in triplicate. 20 μl of media was removed from each well and assayed for sPAP activity using pNPP (p-Nitrophenyl phosphate; Sigma), as a substrate. Endogenous alkaline phosphatase is blocked with L-homoarginine. Optical density of substrate is read at 405-650 nm. Concentration of compound is plotted against OD as a measure of sPAP produced and can be analysed to determine IC50 values.
The assay described in Example 7b above was employed. OSM-GST mutants were diluted to a concentration of 100 ng ml^−using the known concentration of intact OSM mutants generated in Example 9b. A wild type OSM-GST was included for control purposes. Dilutions were made in HepG2 B6 media with 1% heat inactivated FCS, low alkaline phosphatase activity. Serial 1:3 dilutions were then made. (100; 33.33; 11.11; 3.7; 1.23; 0.4 ng ml^−1). 3×10^4 HepG2 B6 were dispensed into individual well of a 96 well plate in 100 μl of media. Cells were allowed to equilibrate for 48 hours. Media was then removed and replaced with 100 μl of diluted OSM-GST mutant. Cells were incubated for a further 20 hours. Each dilution was performed in triplicate. 20 μl of media was removed and assayed for sPAP using pNPP as a substrate. Endogenous ALP was blocked with L-homoarginine. O.D. was read at 405-650 nm. The experiment was repeated twice.
As to “wild type: wild type human OSM-GST fusion protein [reference compound]”, the “Expt 1 EC50” value worked out at 0.024 µg/mL and the “Expt 2 EC50” value was 0.032 µg/mL.
For the molecule B1, the “Expt 1 EC50” value was found to be 0.0324 µg/mL and the “Expt 2 EC50” value amounted to 0.082 µg/mL.
On the same counts, the results for B2 are 0.0202 µg/mL and 0.0217 µg/mL.
With B3, the “Expt 1 EC50” value was 0.021 µg/mL and the “Expt 2 EC50” value turned out to be 0.0178 µg/mL.
On the same counts, the results for B4 are 0.0194 µg/mL and 0.0249 µg/mL.
On the same counts, the results for B5 are 0.0236 µg/mL and 0.0119 µg/mL.
Regarding B6, the “Expt 1 EC50” value amounted to 0.0727 µg/mL and the “Expt 2 EC50” value was 0.056 µg/mL.
For B7, in that order: 0.0286 µg/mL and 0.0277 µg/mL.

Staying with this test, now noted: relative to wild type, from Mean %.
In the case of B1, the “'Potency'” value was “LESS (>120% Less potent than wild type)”.
As for B2, the “'Potency'” value is on record as “MORE (<80% More potent)”.
Regarding B3, the “'Potency'” value is recorded as “MORE (<80% More potent)”.
On the same count and under the same terms, with B4 the entry was “MORE (<80% More potent)”; with B5, “MORE (<80% More potent)”; with B6, “LESS (>120% Less potent than wild type)”.
B7: the “'Potency'” value is reported as “EQUAL (80-120% Equal potency)”.

The values are drawn from patent publication US7291332B2, “Inflammatory mediator antagonists” (SmithKline Beecham Corporation, priority 1998, dated 2007).
